Values of other authors as cited in publication PMC3433420.

Experiments:
Details in all cases: cited from earlier work
PIK3R3-NC (Homo sapiens) = PIK3R3-NC (Homo sapiens) (UniProt Q92569)
PTPN11-N (Homo sapiens) = PTPN11-N (Homo sapiens) (UniProt Q06124)
VAV2 (Homo sapiens) = VAV2 (Homo sapiens) (UniProt P52735)
RASA1-NC (Homo sapiens) = RASA1-NC (Homo sapiens) (UniProt P20936)
SH2D3C (Homo sapiens) = SH2D3C (Homo sapiens) (UniProt Q8N5H7)
SH2B3 (Homo sapiens) = SH2B3 (Homo sapiens) (UniProt Q9UQQ2)
Sequence of SH2B3 (Homo sapiens) (Q9UQQ2 359-467): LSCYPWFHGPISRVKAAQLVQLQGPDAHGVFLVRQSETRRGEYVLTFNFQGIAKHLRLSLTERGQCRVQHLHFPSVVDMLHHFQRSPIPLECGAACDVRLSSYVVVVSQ

YES1 (Homo sapiens) = YES1 (Homo sapiens) (UniProt P07947)
Sequence of YES1 (Homo sapiens) (P07947 153-260): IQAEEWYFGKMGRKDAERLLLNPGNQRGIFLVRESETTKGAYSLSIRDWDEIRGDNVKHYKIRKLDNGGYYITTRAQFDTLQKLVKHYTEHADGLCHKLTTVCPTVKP

Sequence of VAV2 (Homo sapiens) (P52735 668-772): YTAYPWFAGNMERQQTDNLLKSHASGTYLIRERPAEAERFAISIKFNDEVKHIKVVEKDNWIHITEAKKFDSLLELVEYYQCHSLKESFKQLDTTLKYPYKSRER
Sequence of RASA1-NC (Homo sapiens) (P20936 176-446): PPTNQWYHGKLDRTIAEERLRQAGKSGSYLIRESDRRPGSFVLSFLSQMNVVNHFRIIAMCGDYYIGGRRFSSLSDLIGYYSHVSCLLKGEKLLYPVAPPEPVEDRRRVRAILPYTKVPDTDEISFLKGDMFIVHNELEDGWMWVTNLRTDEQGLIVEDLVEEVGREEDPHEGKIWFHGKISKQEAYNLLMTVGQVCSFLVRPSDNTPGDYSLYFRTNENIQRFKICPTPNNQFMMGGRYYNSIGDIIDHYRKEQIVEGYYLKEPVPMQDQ
Sequence of SH2D3C (Homo sapiens) (Q8N5H7 215-324): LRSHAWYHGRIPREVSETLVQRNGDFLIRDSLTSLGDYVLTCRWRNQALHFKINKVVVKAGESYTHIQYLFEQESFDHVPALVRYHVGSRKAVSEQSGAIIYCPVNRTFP

## …pYLIPQQGFd
PIK3R3-NC (Homo sapiens)
  apparent Kd (screen): 0.203 µM
PTPN11-N (Homo sapiens)
  apparent Kd (screen): 0.379 µM
VAV2 (Homo sapiens)
  apparent Kd (screen): 0.085 µM

## …pYLVPQQGF
RASA1-NC (Homo sapiens)
  apparent Kd (screen): 1.77 µM

## …pYWDQDPPE
SH2D3C (Homo sapiens)
  apparent Kd (screen): 0.705 µM

## …pYEEMRAFQ
SH2B3 (Homo sapiens)
  apparent Kd (screen): 1.52 µM
YES1 (Homo sapiens)
  apparent Kd (screen): 2 µM
